{
  "source": "patent US20230127248A1",
  "about": "(AILERON THERAPEUTICS, published 2023)",
  "binders": {"B1": {"name": "SP-815 (peptidomimetic macrocycle derived from the MCL-1/BCL-XL/BCL-2-binding helix of BIM) (peptide)", "peptide": "Ac-IWIAQALR[R8]IGDAFN[S5]YYA-NH2", "modifications": "staple 9-16", "SMILES": "CC[C@H](C)[C@H](NC(C)=O)C(=O)N[C@@H](Cc1c[nH]c2ccccc12)C(=O)N[C@H](C(=O)N[C@@H](C)C(=O)N[C@@H](CCC(N)=O)C(=O)N[C@@H](C)C(=O)N[C@@H](CC(C)C)C(=O)N[C@@H](CCCNC(=N)N)C(=O)N[C@]1(C)CCCCCCC=CCCC[C@@](C)(C(=O)N[C@@H](Cc2ccc(O)cc2)C(=O)N[C@@H](Cc2ccc(O)cc2)C(=O)N[C@@H](C)C(N)=O)NC(=O)[C@H](CC(N)=O)NC(=O)[C@H](Cc2ccccc2)NC(=O)[C@H](C)NC(=O)[C@H](CC(=O)O)NC(=O)CNC(=O)[C@H]([C@@H](C)CC)NC1=O)[C@@H](C)CC", "notes": "Stapled BIM BH3 peptide, 19 residues"}, "B2": {"name": "SP-962 (peptidomimetic macrocycle derived from the MCL-1/BCL-XL/BCL-2-binding helix of BIM) (peptide)", "peptide": "Ac-IWIAQALR[R8][hLeu]GDAFN[S5]Y[Phe(4-F)]A-NH2", "modifications": "staple 9-16", "SMILES": "CC[C@H](C)[C@H](NC(C)=O)C(=O)N[C@@H](Cc1c[nH]c2ccccc12)C(=O)N[C@H](C(=O)N[C@@H](C)C(=O)N[C@@H](CCC(N)=O)C(=O)N[C@@H](C)C(=O)N[C@@H](CC(C)C)C(=O)N[C@@H](CCCNC(=N)N)C(=O)N[C@]1(C)CCCCCCC=CCCC[C@@](C)(C(=O)N[C@@H](Cc2ccc(O)cc2)C(=O)N[C@@H](Cc2ccc(F)cc2)C(=O)N[C@@H](C)C(N)=O)NC(=O)[C@H](CC(N)=O)NC(=O)[C@H](Cc2ccccc2)NC(=O)[C@H](C)NC(=O)[C@H](CC(=O)O)NC(=O)CNC(=O)[C@H](CCC(C)C)NC1=O)[C@@H](C)CC", "notes": "as for B1"}, "B3": {"name": "SP-810 (peptidomimetic macrocycle derived from the MCL-1/BCL-XL/BCL-2-binding helix of BIM) (peptide)", "peptide": "Ac-IWIAQELR[R8]IGDEFN[S5]YYARR-NH2", "modifications": "staple 9-16", "SMILES": "CC[C@H](C)[C@H](NC(C)=O)C(=O)N[C@@H](Cc1c[nH]c2ccccc12)C(=O)N[C@H](C(=O)N[C@@H](C)C(=O)N[C@@H](CCC(N)=O)C(=O)N[C@@H](CCC(=O)O)C(=O)N[C@@H](CC(C)C)C(=O)N[C@@H](CCCNC(=N)N)C(=O)N[C@]1(C)CCCCCCC=CCCC[C@@](C)(C(=O)N[C@@H](Cc2ccc(O)cc2)C(=O)N[C@@H](Cc2ccc(O)cc2)C(=O)N[C@@H](C)C(=O)N[C@@H](CCCNC(=N)N)C(=O)N[C@@H](CCCNC(=N)N)C(N)=O)NC(=O)[C@H](CC(N)=O)NC(=O)[C@H](Cc2ccccc2)NC(=O)[C@H](CCC(=O)O)NC(=O)[C@H](CC(=O)O)NC(=O)CNC(=O)[C@H]([C@@H](C)CC)NC1=O)[C@@H](C)CC", "notes": "Stapled BIM BH3 peptide, 21 residues"}, "B4": {"name": "SP-809 (peptidomimetic macrocycle derived from the MCL-1/BCL-XL/BCL-2-binding helix of BIM) (peptide)", "peptide": "Ac-IWIAQALR[R8]IGDEFN[S5]YYARR-NH2", "modifications": "staple 9-16", "SMILES": "CC[C@H](C)[C@H](NC(C)=O)C(=O)N[C@@H](Cc1c[nH]c2ccccc12)C(=O)N[C@H](C(=O)N[C@@H](C)C(=O)N[C@@H](CCC(N)=O)C(=O)N[C@@H](C)C(=O)N[C@@H](CC(C)C)C(=O)N[C@@H](CCCNC(=N)N)C(=O)N[C@]1(C)CCCCCCC=CCCC[C@@](C)(C(=O)N[C@@H](Cc2ccc(O)cc2)C(=O)N[C@@H](Cc2ccc(O)cc2)C(=O)N[C@@H](C)C(=O)N[C@@H](CCCNC(=N)N)C(=O)N[C@@H](CCCNC(=N)N)C(N)=O)NC(=O)[C@H](CC(N)=O)NC(=O)[C@H](Cc2ccccc2)NC(=O)[C@H](CCC(=O)O)NC(=O)[C@H](CC(=O)O)NC(=O)CNC(=O)[C@H]([C@@H](C)CC)NC1=O)[C@@H](C)CC", "notes": "as for B3"}, "B5": {"name": "SP590 (Table 1b): Ac-LTF$rAYWAQL$A-NH2 (peptide)", "peptide": "Ac-LTF[R8]AYWAQL[S5]A-NH2", "modifications": "staple 4-11", "SMILES": "CC(=O)N[C@@H](CC(C)C)C(=O)N[C@H](C(=O)N[C@@H](Cc1ccccc1)C(=O)N[C@]1(C)CCCCCCC=CCCC[C@@](C)(C(=O)N[C@@H](C)C(N)=O)NC(=O)[C@H](CC(C)C)NC(=O)[C@H](CCC(N)=O)NC(=O)[C@H](C)NC(=O)[C@H](Cc2c[nH]c3ccccc23)NC(=O)[C@H](Cc2ccc(O)cc2)NC(=O)[C@H](C)NC1=O)[C@@H](C)O"}, "B6": {"name": "SP68: Ac-LTF$r8AYWAQL$AANleA-NH2 (peptide)", "peptide": "Ac-LTF[R8]AYWAQL[S5]AA[Nle]A-NH2", "modifications": "staple 4-11", "notes": "i, i+7 stapled p53-derived macrocycle"}, "B7": {"name": "SP317: Ac-LTF$r8AYWAQL$AAAAAAa-NH2 (iso1) (peptide)", "peptide": "Ac-LTF[R8]AYWAQL[S5]AAAAAA[dA]-NH2", "modifications": "staple 4-11; also: single isomer iso1"}},
  "note": "Bridge positions count the residues as written; N and C are the ends. Square brackets hold non-standard residues; d marks the D form. Phe(4-F) = N[C@@H](Cc1ccc(F)cc1)C(=O)O; R8 = C=CCCCCCC[C@@](C)(N)C(=O)O; hLeu = CC(C)CC[C@H](N)C(=O)O; S5 = C=CCCC[C@](C)(N)C(=O)O; Nle = CCCC[C@H](N)C(=O)O",
  "data": [
    {"target": "T1, BCL-XL (UniProt Q07817 1-209)", "T1 construct": "Construct used in the IC50 assay is not described; also called BCL-X1", "T1 sequence (Q07817 1-209)": "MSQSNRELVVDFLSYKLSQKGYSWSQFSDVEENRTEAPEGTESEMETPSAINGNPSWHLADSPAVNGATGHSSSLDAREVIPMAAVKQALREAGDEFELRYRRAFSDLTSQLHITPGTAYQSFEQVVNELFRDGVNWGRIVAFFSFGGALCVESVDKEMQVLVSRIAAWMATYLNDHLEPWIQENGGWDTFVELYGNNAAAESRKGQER", "test": "IC50 against BCL-XL, Table 4b; assay format not stated", "units": {"IC50": "nM"}, "values": [
      {"binder": "B1", "IC50": 22.4},
      {"binder": "B2", "IC50": 13},
      {"binder": "B3", "IC50": 9.2},
      {"binder": "B4", "IC50": 3.9}
    ]},
    {"target": "T2, MDM2 (human, UniProt Q00987 1-138, limits assumed)", "T2 construct": "also called HDM2; human double minute 2", "T2 sequence (Q00987 1-138 limits assumed)": "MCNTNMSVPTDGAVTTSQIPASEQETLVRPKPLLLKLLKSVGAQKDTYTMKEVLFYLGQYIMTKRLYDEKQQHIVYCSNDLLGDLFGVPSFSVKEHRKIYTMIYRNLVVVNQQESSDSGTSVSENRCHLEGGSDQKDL", "test": "IC50 against MDM2; assay format and competitor not described with the table", "units": {"IC50": "nM"}, "values": [
      {"binder": "B5", "IC50": 141},
      {"binder": "B6", "IC50": 29},
      {"binder": "B7", "IC50": 10}
    ]},
    {"target": "T3, MCL-1 (Myeloid cell leukemia 1) (UniProt Q07820 172-327, limits assumed)", "T3 construct": "Construct used in the IC50 assay is not described", "T3 sequence (Q07820 172-327 limits assumed)": "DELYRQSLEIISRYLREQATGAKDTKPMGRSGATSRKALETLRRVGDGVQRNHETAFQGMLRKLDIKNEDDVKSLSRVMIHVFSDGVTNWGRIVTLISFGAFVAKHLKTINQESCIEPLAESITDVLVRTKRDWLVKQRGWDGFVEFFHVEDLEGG", "test": "IC50 against MCL-1, Table 4b; assay format not stated", "units": {"IC50": "nM"}, "values": [
      {"binder": "B1", "IC50": 8.4},
      {"binder": "B2", "IC50": 27},
      {"binder": "B4", "IC50": 10.6}
    ]}
  ]
}
